Assay results reported in US20220273789A1.

molecular target: human IgG (human); experiment: BLI (Octet), gEgI on Ni-NTA sensor, hIgG in solution

**Q.** Which Kd does the source give for “HSV2-gE_R314P P318R_gI (from UniProt P89475 21-416; P06764 21-256) (receptor)” here?
**A.** 317 nM

**Q.** And the Response?
**A.** 0.371 nm

**Q.** What about the koff of the same substance?
**A.** 0.00199 s⁻¹

**Q.** What about the kon of the same substance?
**A.** 6270 M⁻¹ s⁻¹

**Q.** With “HSV2-gE_R314P V340W_gI (from UniProt P89475 21-416; P06764 21-256) (receptor)” as the substance, how does the Kd read?
**A.** 560 nM

**Q.** What about the Response of the same substance?
**A.** 0.134 nm

**Q.** What about the koff of the same substance?
**A.** 0.00355 s⁻¹

**Q.** What about the kon of the same substance?
**A.** 6340 M⁻¹ s⁻¹

**Q.** “HSV2-gE_R314L F322A_gI (from UniProt P89475 21-416; P06764 21-256) (receptor)” was tested. Which Kd did it give?
**A.** 303 nM

**Q.** What about the Response of the same substance?
**A.** 0.603 nm

**Q.** What about the koff of the same substance?
**A.** 0.00385 s⁻¹

**Q.** What about the kon of the same substance?
**A.** 12700 M⁻¹ s⁻¹

**Q.** What does the source list for “HSV2-gE_R314L F322P_gI (from UniProt P89475 21-416; P06764 21-256) (receptor)”?
**A.** Kd: 210 nM; Response: 0.607 nm; koff: 0.00255 s⁻¹; kon: 12100 M⁻¹ s⁻¹

**Q.** For “HSV2-gE_P317K S338G_gI (from UniProt P89475 21-416; P06764 21-256) (receptor)”, which Kd is on record?
**A.** 238 nM

**Q.** And the Response?
**A.** 0.198 nm

**Q.** What about the koff of the same substance?
**A.** 0.00167 s⁻¹

**Q.** And the kon?
**A.** 7030 M⁻¹ s⁻¹

**Q.** With “HSV2-gE_R314G V340W_gI (from UniProt P89475 21-416; P06764 21-256) (receptor)” as the substance, how does the Kd read?
**A.** 1010 nM

**Q.** And the Response?
**A.** 0.144 nm

**Q.** What about the koff of the same substance?
**A.** 0.00543 s⁻¹

**Q.** What about the kon of the same substance?
**A.** 5400 M⁻¹ s⁻¹

**Q.** For “HSV2-gE_P317S V340W_gI (from UniProt P89475 21-416; P06764 21-256) (receptor)”, which Kd is on record?
**A.** 351 nM

**Q.** What about the Response of the same substance?
**A.** 0.131 nm

**Q.** And the koff?
**A.** 0.00282 s⁻¹

**Q.** What about the kon of the same substance?
**A.** 8050 M⁻¹ s⁻¹

**Q.** Which results are given for “HSV2-gE_P318I S338G_gI (from UniProt P89475 21-416; P06764 21-256) (receptor)”?
**A.** Kd: 335 nM; Response: 0.237 nm; koff: 0.00297 s⁻¹; kon: 8870 M⁻¹ s⁻¹

**Q.** What does the source list for “HSV2-gE_P319L V340M_gI (from UniProt P89475 21-416; P06764 21-256) (receptor)”?
**A.** Kd: 222 nM; Response: 0.336 nm; koff: 0.00216 s⁻¹; kon: 9750 M⁻¹ s⁻¹

**Q.** Which Kd does the source give for “HSV2-gE_P317S S338L_gI (from UniProt P89475 21-416; P06764 21-256) (receptor)” here?
**A.** 167 nM

**Q.** And the Response?
**A.** 0.549 nm

**Q.** What about the koff of the same substance?
**A.** 0.00163 s⁻¹

**Q.** And the kon?
**A.** 9770 M⁻¹ s⁻¹

**Q.** “HSV2-gE_R314P P318I_gI (from UniProt P89475 21-416; P06764 21-256) (receptor)” was tested. Which Kd did it give?
**A.** 277 nM

**Q.** And the Response?
**A.** 0.248 nm

**Q.** And the koff?
**A.** 0.00223 s⁻¹

**Q.** What about the kon of the same substance?
**A.** 8040 M⁻¹ s⁻¹

**Q.** How did the Kd turn out when “HSV2-gE_P318R S338L_gI (from UniProt P89475 21-416; P06764 21-256) (receptor)” was run?
**A.** 176 nM

**Q.** What about the Response of the same substance?
**A.** 0.49 nm

**Q.** And the koff?
**A.** 0.00138 s⁻¹

**Q.** What about the kon of the same substance?
**A.** 7870 M⁻¹ s⁻¹

**Q.** Which results are given for “HSV2-gE_H245S P319G_gI (from UniProt P89475 21-416; P06764 21-256) (receptor)”?
**A.** Kd: 363 nM; Response: 0.313 nm; koff: 0.0027 s⁻¹; kon: 7440 M⁻¹ s⁻¹

**Q.** For “HSV2-gE_P317F V340R_gI (from UniProt P89475 21-416; P06764 21-256) (receptor)”, which Kd is on record?
**A.** 372 nM

**Q.** What about the Response of the same substance?
**A.** 0.301 nm

**Q.** What about the koff of the same substance?
**A.** 0.00218 s⁻¹

**Q.** And the kon?
**A.** 5880 M⁻¹ s⁻¹

**Q.** “HSV2-gE_P318R S338H_gI (from UniProt P89475 21-416; P06764 21-256) (receptor)” was tested. Which Kd did it give?
**A.** 5.32 nM

**Q.** And the Response?
**A.** 0.192 nm

**Q.** And the koff?
**A.** 4.28e-05 s⁻¹

**Q.** What about the kon of the same substance?
**A.** 8050 M⁻¹ s⁻¹

**Q.** With “HSV2-gE_P317K S338H_gI (from UniProt P89475 21-416; P06764 21-256) (receptor)” as the substance, how does the Kd read?
**A.** 338 nM

**Q.** What about the Response of the same substance?
**A.** 0.146 nm

**Q.** And the koff?
**A.** 0.00195 s⁻¹

**Q.** What about the kon of the same substance?
**A.** 5780 M⁻¹ s⁻¹

**Q.** What does the source list for “HSV2-gE_P319G V340M_gI (from UniProt P89475 21-416; P06764 21-256) (receptor)”?
**A.** Kd: 297 nM; Response: 0.393 nm; koff: 0.00393 s⁻¹; kon: 13200 M⁻¹ s⁻¹

**Q.** “HSV2-gE_R314G P318I_gI (from UniProt P89475 21-416; P06764 21-256) (receptor)” was tested. Which Kd did it give?
**A.** 449 nM

**Q.** What about the Response of the same substance?
**A.** 0.153 nm

**Q.** What about the koff of the same substance?
**A.** 0.00278 s⁻¹

**Q.** What about the kon of the same substance?
**A.** 6200 M⁻¹ s⁻¹

**Q.** How did the Kd turn out when “HSV2-gE_R314G V340R_gI (from UniProt P89475 21-416; P06764 21-256) (receptor)” was run?
**A.** 394 nM

**Q.** What about the Response of the same substance?
**A.** 0.439 nm

**Q.** And the koff?
**A.** 0.00245 s⁻¹

**Q.** And the kon?
**A.** 6230 M⁻¹ s⁻¹

**Q.** Which Kd does the source give for “HSV2-gE_R314P F322I_gI (from UniProt P89475 21-416; P06764 21-256) (receptor)” here?
**A.** 300 nM

**Q.** And the Response?
**A.** 0.389 nm

**Q.** And the koff?
**A.** 0.0036 s⁻¹

**Q.** What about the kon of the same substance?
**A.** 12000 M⁻¹ s⁻¹

**Q.** Which Kd does the source give for “HSV2-gE_P317S V340M_gI (from UniProt P89475 21-416; P06764 21-256) (receptor)” here?
**A.** 269 nM

**Q.** What about the Response of the same substance?
**A.** 0.623 nm

**Q.** What about the koff of the same substance?
**A.** 0.0039 s⁻¹

**Q.** And the kon?
**A.** 14500 M⁻¹ s⁻¹

**Q.** For “HSV2-gE_P318D S338G_gI (from UniProt P89475 21-416; P06764 21-256) (receptor)”, which Kd is on record?
**A.** 330 nM

**Q.** And the Response?
**A.** 0.143 nm

**Q.** And the koff?
**A.** 0.00256 s⁻¹

**Q.** And the kon?
**A.** 7750 M⁻¹ s⁻¹

**Q.** How did the Kd turn out when “HSV2-gE_P319G V340W_gI (from UniProt P89475 21-416; P06764 21-256) (receptor)” was run?
**A.** 385 nM

**Q.** And the Response?
**A.** 0.106 nm

**Q.** And the koff?
**A.** 0.00249 s⁻¹

**Q.** What about the kon of the same substance?
**A.** 6460 M⁻¹ s⁻¹
